# T1: GST-tagged Dhh1(46–461) (S. cerevisiae, UniProt P39517 46-461)
# T1 sequence (looked up): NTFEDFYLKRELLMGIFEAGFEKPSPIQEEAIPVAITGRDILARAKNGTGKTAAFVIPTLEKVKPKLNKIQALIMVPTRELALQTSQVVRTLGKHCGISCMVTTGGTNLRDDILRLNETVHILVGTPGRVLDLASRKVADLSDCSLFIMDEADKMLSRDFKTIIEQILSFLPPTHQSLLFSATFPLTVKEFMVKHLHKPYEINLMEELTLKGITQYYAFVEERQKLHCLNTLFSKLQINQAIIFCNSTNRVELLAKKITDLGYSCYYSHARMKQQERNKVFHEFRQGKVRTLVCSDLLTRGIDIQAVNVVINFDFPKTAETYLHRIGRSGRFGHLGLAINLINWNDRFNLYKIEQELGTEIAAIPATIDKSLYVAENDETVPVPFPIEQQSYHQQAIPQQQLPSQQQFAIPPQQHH
# Target: T1, GST-tagged Dhh1(46–461)
# Test: pull-down
row,binding result,Binder
1,binds,"His-Dcp2(1–300)-Flag (domain or fragment, S. cerevisiae, UniProt P53550 1-300, looked up) MSLPLRHALENVTSVDRILEDLLVRFIINCPNEDLSSVERELFHFEEASWFYTDFIKLMNPTLPSLKIKSFAQLIIKLCPLVWKWDIRVDEALQQFSKYKKSIPVRGAAIFNENLSKILLVQGTESDSWSFPRGKISKDENDIDCCIREVKEEIGFDLTDYIDDNQFIERNIQGKNYKIFLISGVSEVFNFKPQVRNEIDKIEWFDFKKISKTMYKSNIKYYLINSMMRPLSMWLRHQRQIKNEDQLKSYAEEQLKLLLGITKEEQIDPGRELLNMLHTAVQANSNNNAVSNGQVPSSQE"
2,binds,"His-Dcp2(102–300)-Flag (domain or fragment, S. cerevisiae, UniProt P53550 102-300, looked up) SIPVRGAAIFNENLSKILLVQGTESDSWSFPRGKISKDENDIDCCIREVKEEIGFDLTDYIDDNQFIERNIQGKNYKIFLISGVSEVFNFKPQVRNEIDKIEWFDFKKISKTMYKSNIKYYLINSMMRPLSMWLRHQRQIKNEDQLKSYAEEQLKLLLGITKEEQIDPGRELLNMLHTAVQANSNNNAVSNGQVPSSQE"

# Source: article PMC2064791 (The Journal of Cell Biology, 2007)
